Results: patent publication US20210246166A1 (Bayer, published 2021)
Numbered stars: 1 amine (or outer) side, 2 acyl side, 3 side chain; on linkers, the order of the positions; unused ones are H or OH. Bridge positions count the residues as written; N and C are the ends. Square brackets hold non-standard residues; d marks the D form. Primed or numbered codes have the meaning given here. Ends that are not written are not given here. * marks the point of attachment. Leu(4-F)″ = 4-fluoro-L-leucine, CC(C)(F)C[C@H](N[*:1])C(=O)[*:2]; Piperidin‑4‑ylacetic acid = O=C(CC1CCNCC1)*; Oic = O=C(O)[C@@H]1C[C@@H]2CCCC[C@@H]2N1; Phe(2-Cl) = N[C@@H](Cc1ccccc1Cl)C(=O)O; tBuAla = CC(C)(C)C[C@H](N)C(=O)O; Chg = N[C@H](C(=O)O)C1CCCCC1; NMePro = CN1CCC[C@H]1C(=O)*; NMeC = CN[C@@H](CS)C(=O)O; NMeA = CN[C@@H](C)C(=O)O; Orn = NCCC[C@H](N)C(=O)O; Abu = CC[C@H](N)C(=O)O; Sar = CNCC(=O)O

T1: recombinant rat MASP1 active protease (amino acids 302-704, C-terminal His Tag) (rat, UniProt Q8CHN8 302-704)
T1 sequence: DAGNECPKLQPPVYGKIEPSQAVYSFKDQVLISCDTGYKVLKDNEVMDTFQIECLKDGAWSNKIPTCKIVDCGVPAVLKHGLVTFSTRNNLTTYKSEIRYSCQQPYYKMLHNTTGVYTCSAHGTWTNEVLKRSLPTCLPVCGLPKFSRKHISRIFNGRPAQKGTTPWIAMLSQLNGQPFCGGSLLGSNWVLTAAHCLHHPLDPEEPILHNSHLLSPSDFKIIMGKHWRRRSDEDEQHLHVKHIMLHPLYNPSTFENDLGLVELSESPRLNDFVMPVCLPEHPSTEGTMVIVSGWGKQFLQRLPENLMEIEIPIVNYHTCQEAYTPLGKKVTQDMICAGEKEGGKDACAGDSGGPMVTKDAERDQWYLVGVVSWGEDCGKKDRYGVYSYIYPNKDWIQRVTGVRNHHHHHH

B1: Example 248: AIC+SRS-((4-Fluoro)L)-PPIC+IPD-NH2 (peptide)
peptide: AICSRS[Leu(4-F)″]PPICIPD-NH2
modifications: disulfide 3-11; N-terminus assumed
SMILES: CC[C@H](C)[C@H](NC(=O)[C@H](C)N)C(=O)N[C@H]1CSSC[C@@H](C(=O)N[C@H](C(=O)N2CCC[C@H]2C(=O)N[C@@H](CC(=O)O)C(N)=O)[C@@H](C)CC)NC(=O)[C@H]([C@@H](C)CC)NC(=O)[C@@H]2CCCN2C(=O)[C@@H]2CCCN2C(=O)[C@H](CC(C)(C)F)NC(=O)[C@H](CO)NC(=O)[C@H](CCCNC(=N)N)NC(=O)[C@H](CO)NC1=O
B2: Example 225: (Orn)-IC+SRSLPP-(Chg)-C+IPD-OH (peptide)
peptide: [Orn]ICSRSLPP[Chg]CIPD-OH
modifications: disulfide 3-11; N-terminus assumed
SMILES: CC[C@H](C)[C@H](NC(=O)[C@@H](N)CCCN)C(=O)N[C@H]1CSSC[C@@H](C(=O)N[C@H](C(=O)N2CCC[C@H]2C(=O)N[C@@H](CC(=O)O)C(=O)O)[C@@H](C)CC)NC(=O)[C@H](C2CCCCC2)NC(=O)[C@@H]2CCCN2C(=O)[C@@H]2CCCN2C(=O)[C@H](CC(C)C)NC(=O)[C@H](CO)NC(=O)[C@H](CCCNC(=N)N)NC(=O)[C@H](CO)NC1=O
B3: Example 243: ((N,N-diMe)A)-IC+SRS-((tBu)A)-PPIC+IPD-NH2 (peptide)
peptide: [(N,N-diMe)A]ICSRS[tBuAla]PPICIPD-NH2
modifications: disulfide 3-11
B4: Example 247: AIC+SRSLPP-(Chg)-C+I-NH2 (peptide)
peptide: AICSRSLPP[Chg]CI-NH2
modifications: disulfide 3-11; N-terminus assumed
SMILES: CC[C@H](C)[C@H](NC(=O)[C@@H]1CSSC[C@H](NC(=O)[C@@H](NC(=O)[C@H](C)N)[C@@H](C)CC)C(=O)N[C@@H](CO)C(=O)N[C@@H](CCCNC(=N)N)C(=O)N[C@@H](CO)C(=O)N[C@@H](CC(C)C)C(=O)N2CCC[C@H]2C(=O)N2CCC[C@H]2C(=O)N[C@@H](C2CCCCC2)C(=O)N1)C(N)=O
B5: Example 231: AIC+SRS-((tBu)A)-P-(Oic)-I-((N-Me)C)+IPD-OH (peptide)
peptide: AICSRS[tBuAla]P[Oic]I[NMeC]IPD-OH
modifications: disulfide 3-11; N-terminus assumed
SMILES: CC[C@H](C)[C@H](NC(=O)[C@H](C)N)C(=O)N[C@H]1CSSC[C@@H](C(=O)N[C@H](C(=O)N2CCC[C@H]2C(=O)N[C@@H](CC(=O)O)C(=O)O)[C@@H](C)CC)N(C)C(=O)[C@H]([C@@H](C)CC)NC(=O)[C@@H]2C[C@@H]3CCCC[C@@H]3N2C(=O)[C@@H]2CCCN2C(=O)[C@H](CC(C)(C)C)NC(=O)[C@H](CO)NC(=O)[C@H](CCCNC(=N)N)NC(=O)[C@H](CO)NC1=O
B6: Example 246: ((N-Me)G)-IC+SRS-((tBu)A)-PPIC+IPD-OH (peptide)
peptide: [Sar]ICSRS[tBuAla]PPICIPD-OH
modifications: disulfide 3-11; N-terminus assumed
SMILES: CC[C@H](C)[C@H](NC(=O)CNC)C(=O)N[C@H]1CSSC[C@@H](C(=O)N[C@H](C(=O)N2CCC[C@H]2C(=O)N[C@@H](CC(=O)O)C(=O)O)[C@@H](C)CC)NC(=O)[C@H]([C@@H](C)CC)NC(=O)[C@@H]2CCCN2C(=O)[C@@H]2CCCN2C(=O)[C@H](CC(C)(C)C)NC(=O)[C@H](CO)NC(=O)[C@H](CCCNC(=N)N)NC(=O)[C@H](CO)NC1=O
B7: Example 238: AIC+SRS-((2-Chloro)F)-PPI-((N-Me)C)+IPD-NH2 (peptide)
peptide: AICSRS[Phe(2-Cl)]PPI[NMeC]IPD-NH2
modifications: disulfide 3-11; N-terminus assumed
SMILES: CC[C@H](C)[C@H](NC(=O)[C@H](C)N)C(=O)N[C@H]1CSSC[C@@H](C(=O)N[C@H](C(=O)N2CCC[C@H]2C(=O)N[C@@H](CC(=O)O)C(N)=O)[C@@H](C)CC)N(C)C(=O)[C@H]([C@@H](C)CC)NC(=O)[C@@H]2CCCN2C(=O)[C@@H]2CCCN2C(=O)[C@H](Cc2ccccc2Cl)NC(=O)[C@H](CO)NC(=O)[C@H](CCCNC(=N)N)NC(=O)[C@H](CO)NC1=O
B8: Example 236: (Orn)-IC+SRSLPPIC+I-NH2 (peptide)
peptide: [Orn]ICSRSLPPICI-NH2
modifications: disulfide 3-11; N-terminus assumed
SMILES: CC[C@H](C)[C@H](NC(=O)[C@@H]1CSSC[C@H](NC(=O)[C@@H](NC(=O)[C@@H](N)CCCN)[C@@H](C)CC)C(=O)N[C@@H](CO)C(=O)N[C@@H](CCCNC(=N)N)C(=O)N[C@@H](CO)C(=O)N[C@@H](CC(C)C)C(=O)N2CCC[C@H]2C(=O)N2CCC[C@H]2C(=O)N[C@@H]([C@@H](C)CC)C(=O)N1)C(N)=O
B9: Example 259: (Piperidin-4-ylacetic acid)-IC+SRS-((tBu)A)-PPI-((N-Me)C)+I-NH2 (peptide)
peptide: {Piperidin‑4‑ylacetic acid}-ICSRS[tBuAla]PPI[NMeC]I-NH2
modifications: disulfide 2-10
SMILES: CC[C@H](C)[C@H](NC(=O)[C@@H]1CSSC[C@H](NC(=O)[C@@H](NC(=O)CC2CCNCC2)[C@@H](C)CC)C(=O)N[C@@H](CO)C(=O)N[C@@H](CCCNC(=N)N)C(=O)N[C@@H](CO)C(=O)N[C@@H](CC(C)(C)C)C(=O)N2CCC[C@H]2C(=O)N2CCC[C@H]2C(=O)N[C@@H]([C@@H](C)CC)C(=O)N1C)C(N)=O
B10: Example 250: ((N-Me)P)-IC+SRS-((tBu)A)-PPIC+IPD-NH2 (peptide)
peptide: [NMePro]ICSRS[tBuAla]PPICIPD-NH2
modifications: disulfide 3-11
SMILES: CC[C@H](C)[C@H](NC(=O)[C@@H]1CCCN1C)C(=O)N[C@H]1CSSC[C@@H](C(=O)N[C@H](C(=O)N2CCC[C@H]2C(=O)N[C@@H](CC(=O)O)C(N)=O)[C@@H](C)CC)NC(=O)[C@H]([C@@H](C)CC)NC(=O)[C@@H]2CCCN2C(=O)[C@@H]2CCCN2C(=O)[C@H](CC(C)(C)C)NC(=O)[C@H](CO)NC(=O)[C@H](CCCNC(=N)N)NC(=O)[C@H](CO)NC1=O
B11: Example 241: AIC+SRSL-((4aR,6aR,9S,11aS)-11-Oxo-2,3,4,4a,6a,7,8,9,11,11a-decahydro-1H-pyrido[3,2-e]pyrrolo[1,2-a]azepine-9-carboxylic acid)-IC+IPD-NH2 (peptide)
peptide: AICSRSL[(4aR,6aR,9S,11aS)‑11‑Oxo‑2,3,4,4a,6a,7,8,9,11,11a‑decahydro‑1H‑pyrido(3,2-e)pyrrolo(1,2-a)azepine‑9‑carboxylic acid]ICIPD-NH2
modifications: disulfide 3-10
B12: Example 253: ((N-Me)A)-IC+SRS-((tBu)A)-PPIC+IPD-NH2 (peptide)
peptide: [NMeA]ICSRS[tBuAla]PPICIPD-NH2
modifications: disulfide 3-11; N-terminus assumed
SMILES: CC[C@H](C)[C@H](NC(=O)[C@H](C)NC)C(=O)N[C@H]1CSSC[C@@H](C(=O)N[C@H](C(=O)N2CCC[C@H]2C(=O)N[C@@H](CC(=O)O)C(N)=O)[C@@H](C)CC)NC(=O)[C@H]([C@@H](C)CC)NC(=O)[C@@H]2CCCN2C(=O)[C@@H]2CCCN2C(=O)[C@H](CC(C)(C)C)NC(=O)[C@H](CO)NC(=O)[C@H](CCCNC(=N)N)NC(=O)[C@H](CO)NC1=O
B13: Example 234: AIC+SRS-((tBu)A)-P-(Oic)-I-C+IPD-NH2 (peptide)
peptide: AICSRS[tBuAla]P[Oic]ICIPD-NH2
modifications: disulfide 3-11; N-terminus assumed
SMILES: CC[C@H](C)[C@H](NC(=O)[C@H](C)N)C(=O)N[C@H]1CSSC[C@@H](C(=O)N[C@H](C(=O)N2CCC[C@H]2C(=O)N[C@@H](CC(=O)O)C(N)=O)[C@@H](C)CC)NC(=O)[C@H]([C@@H](C)CC)NC(=O)[C@@H]2C[C@@H]3CCCC[C@@H]3N2C(=O)[C@@H]2CCCN2C(=O)[C@H](CC(C)(C)C)NC(=O)[C@H](CO)NC(=O)[C@H](CCCNC(=N)N)NC(=O)[C@H](CO)NC1=O
B14: Example 254: AIC+SRSLPP-(Chg)-C+IPD-NH2 (peptide)
peptide: AICSRSLPP[Chg]CIPD-NH2
modifications: disulfide 3-11; N-terminus assumed
SMILES: CC[C@H](C)[C@H](NC(=O)[C@H](C)N)C(=O)N[C@H]1CSSC[C@@H](C(=O)N[C@H](C(=O)N2CCC[C@H]2C(=O)N[C@@H](CC(=O)O)C(N)=O)[C@@H](C)CC)NC(=O)[C@H](C2CCCCC2)NC(=O)[C@@H]2CCCN2C(=O)[C@@H]2CCCN2C(=O)[C@H](CC(C)C)NC(=O)[C@H](CO)NC(=O)[C@H](CCCNC(=N)N)NC(=O)[C@H](CO)NC1=O
B15: Example 228: ((N-Me)G)-IC+SRSLPPIC+IPD-NH2 (HCl salt) (peptide)
peptide: [Sar]ICSRSLPPICIPD-NH2
modifications: disulfide 3-11; also: HCl salt
B16: Example 223: WIC+SRS-((tBu)A)-PPI-((N-Me)C)+I-NH2 (peptide)
peptide: WICSRS[tBuAla]PPI[NMeC]I-NH2
modifications: disulfide 3-11; N-terminus assumed
SMILES: CC[C@H](C)[C@H](NC(=O)[C@@H]1CSSC[C@H](NC(=O)[C@@H](NC(=O)[C@@H](N)Cc2c[nH]c3ccccc23)[C@@H](C)CC)C(=O)N[C@@H](CO)C(=O)N[C@@H](CCCNC(=N)N)C(=O)N[C@@H](CO)C(=O)N[C@@H](CC(C)(C)C)C(=O)N2CCC[C@H]2C(=O)N2CCC[C@H]2C(=O)N[C@@H]([C@@H](C)CC)C(=O)N1C)C(N)=O
B17: Example 230: (Abu)-IC+SRSLPPIC+IPD-NH2 (peptide)
peptide: [Abu]ICSRSLPPICIPD-NH2
modifications: disulfide 3-11; N-terminus assumed
SMILES: CC[C@H](N)C(=O)N[C@H](C(=O)N[C@H]1CSSC[C@@H](C(=O)N[C@H](C(=O)N2CCC[C@H]2C(=O)N[C@@H](CC(=O)O)C(N)=O)[C@@H](C)CC)NC(=O)[C@H]([C@@H](C)CC)NC(=O)[C@@H]2CCCN2C(=O)[C@@H]2CCCN2C(=O)[C@H](CC(C)C)NC(=O)[C@H](CO)NC(=O)[C@H](CCCNC(=N)N)NC(=O)[C@H](CO)NC1=O)[C@@H](C)CC

target: T1, recombinant rat MASP1 active protease …; assay: cell-based or functional assay

| rat MASP1 IC50 | Binder |
| --- | --- |
| 260 nM | B1 |
| 230 nM | B2 |
| 140 nM | B3 |
| 700 nM | B4 |
| 38 nM | B5 |
| 78 nM | B6 |
| 150 nM | B7 |
| 890 nM | B8 |
| 27 nM | B9 |
| 77 nM | B10 |
| 130 nM | B11 |
| 130 nM | B12 |
| 78 nM | B13 |
| 320 nM | B14 |
| 260 nM | B15 |
| 120 nM | B16 |
| 370 nM | B17 |
